Source: paper PMC11789017, “Preventing inappropriate signals pre- and post-ligand perception by a toggle switch mechanism of ERECTA” (Proceedings of the National Academy of Sciences of the …, 2025)

B1: MBP-fused full-length ER cytoplasmic domain (MBP-ER_CD) (domain or fragment, Arabidopsis, UniProt Q42371 602-976, looked up)
chain: CRPHNPPPFLDGSLDKPVTYSTPKLVILHMNMALHVYEDIMRMTENLSEKYIIGHGASSTVYKCVLKNCKPVAIKRLYSHNPQSMKQFETELEMLSSIKHRNLVSLQAYSLSHLGSLLFYDYLENGSLWDLLHGPTKKKTLDWDTRLKIAYGAAQGLAYLHHDCSPRIIHRDVKSSNILLDKDLEARLTDFGIAKSLCVSKSHTSTYVMGTIGYIDPEYARTSRLTEKSDVYSYGIVLLELLTRRKAVDDESNLHHLIMSKTGNNEVMEMADPDITSTCKDLGVVKKVFQLALLCTKRQPNDRPTMHQVTRVLGSFMLSEQPPAATDTSATLAGSCYVDEYANLKTPHSVNCSSMSASDAQLFLRFGQVISQNSE
notes: ERECTA (ER) receptor kinase, Arabidopsis, cytoplasmic domain (juxtamembrane domain, kinase domain and C-terminal tail); source: recombinant, expressed and purified; not shown: MBP, N-terminal, kept

Key:
[1] = target: GST-PUB30 (U-box E3 ligase PUB30) (UniProt Q058P4); assay: BLI; recombinantly purified GST-BKI1 or GST-PUB30 and MBP-ER_CD variants at seven concentrations (156.25, 312.5, 625, 1,250, 2,500, 5,000 and 10,000 nM); three independent experiments; who was immobilised is in SI Appendix
[2] = target: GST-BKI1 (BRI1 KINASE INHIBITOR 1) (UniProt Q9FMZ0); assay: as above
[3] = target: T1, GST-PUB30 (U-box E3 ligase PUB30) (UniProt Q058P4 1-448); assay: as above; conditions: both partners purified
T1 construct: plant U-box (PUB) E3 ubiquitin ligase PUB30; Tag end from the order of the printed name; source: recombinantly purified; not shown: GST, N-terminal, kept
T1 sequence (looked up): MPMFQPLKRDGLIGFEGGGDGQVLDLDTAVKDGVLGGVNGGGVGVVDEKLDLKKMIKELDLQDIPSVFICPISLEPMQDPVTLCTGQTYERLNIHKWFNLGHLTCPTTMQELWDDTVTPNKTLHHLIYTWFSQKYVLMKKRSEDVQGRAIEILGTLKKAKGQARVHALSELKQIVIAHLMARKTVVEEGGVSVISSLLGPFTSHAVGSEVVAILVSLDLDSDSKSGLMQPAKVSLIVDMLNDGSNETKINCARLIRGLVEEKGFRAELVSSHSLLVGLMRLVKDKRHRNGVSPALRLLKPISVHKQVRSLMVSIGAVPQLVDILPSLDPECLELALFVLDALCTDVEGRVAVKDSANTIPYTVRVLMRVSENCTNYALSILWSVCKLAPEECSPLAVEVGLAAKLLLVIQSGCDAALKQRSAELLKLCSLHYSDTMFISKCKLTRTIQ

[4] = target: T2, MBP-ER_CD_(T/S8E), phosphomimetic version (Arabidopsis, UniProt Q42371 602-976, Thr947 (T/S8E) | Ser950 (T/S8E) | Ser954 (T/S8E) | Ser955 (T/S8E) | Ser957 …); assay: BLI
T2 sequence: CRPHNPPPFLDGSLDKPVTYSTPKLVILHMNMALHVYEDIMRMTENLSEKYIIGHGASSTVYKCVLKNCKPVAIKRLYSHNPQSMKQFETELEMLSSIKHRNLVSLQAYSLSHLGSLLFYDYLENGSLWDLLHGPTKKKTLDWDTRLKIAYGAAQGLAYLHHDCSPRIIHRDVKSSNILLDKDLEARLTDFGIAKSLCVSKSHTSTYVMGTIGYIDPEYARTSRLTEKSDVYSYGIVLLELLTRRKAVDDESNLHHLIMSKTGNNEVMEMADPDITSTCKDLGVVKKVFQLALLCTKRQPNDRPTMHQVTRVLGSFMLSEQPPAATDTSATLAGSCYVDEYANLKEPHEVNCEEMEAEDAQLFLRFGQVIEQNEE

[5] = target: T3, MBP-ER_CD_(T/S8A), phosphonull version (Arabidopsis, UniProt Q42371 602-976, Thr947 (T/S8A) | Ser950 (T/S8A) | Ser954 (T/S8A) | Ser955 (T/S8A) | Ser957 …); assay: BLI
T3 sequence: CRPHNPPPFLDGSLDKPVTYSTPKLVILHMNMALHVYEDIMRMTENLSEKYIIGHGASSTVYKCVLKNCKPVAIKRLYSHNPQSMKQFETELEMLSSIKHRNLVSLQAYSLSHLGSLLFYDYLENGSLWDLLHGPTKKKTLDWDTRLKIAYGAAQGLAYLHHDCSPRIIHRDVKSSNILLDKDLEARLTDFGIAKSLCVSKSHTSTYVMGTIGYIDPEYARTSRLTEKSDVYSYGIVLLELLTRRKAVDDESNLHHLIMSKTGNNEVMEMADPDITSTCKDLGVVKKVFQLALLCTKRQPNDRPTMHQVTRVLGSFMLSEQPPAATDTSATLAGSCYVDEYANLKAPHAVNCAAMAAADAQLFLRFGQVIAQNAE

[6] = target: B1; assay: BLI; recombinantly purified GST-BKI1 or GST-PUB30 and MBP-ER_CD variants at seven concentrations (156.25, 312.5, 625, 1,250, 2,500, 5,000 and 10,000 nM); three independent experiments; who was immobilised is in SI Appendix; conditions: both partners purified
[7] = target: T4, MBP-ER_CD_(T/S8A), phosphonull version (Arabidopsis, UniProt Q42371 602-976, Thr947 (T/S8A) | Ser950 (T/S8A) | Ser954 (T/S8A) | Ser955 (T/S8A) | Ser957 …); assay: as above; conditions: both partners purified
T4 construct: ERECTA (ER), Arabidopsis, cytoplasmic domain with the eight phosphosites of the C-terminal tail changed to alanine; Tag end from the order of the printed name; source: recombinant, purified; not shown: MBP, N-terminal, kept
T4 sequence (looked up): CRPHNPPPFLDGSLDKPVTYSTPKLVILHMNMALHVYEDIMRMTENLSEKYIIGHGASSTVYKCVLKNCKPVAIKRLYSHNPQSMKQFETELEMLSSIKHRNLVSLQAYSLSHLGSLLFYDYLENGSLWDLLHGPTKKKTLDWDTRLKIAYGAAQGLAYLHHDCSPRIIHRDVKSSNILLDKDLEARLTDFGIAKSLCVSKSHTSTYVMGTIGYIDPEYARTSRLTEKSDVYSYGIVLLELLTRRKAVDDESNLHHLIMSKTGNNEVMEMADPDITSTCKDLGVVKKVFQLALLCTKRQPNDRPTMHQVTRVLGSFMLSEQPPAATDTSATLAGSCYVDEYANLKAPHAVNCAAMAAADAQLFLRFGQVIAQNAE

MBP-ER_CD_(ΔCTα-Helix) (domain or fragment)
Kd [1]: 0.805 µM | Kd [2]: 47.7 µM

B1
Kd [3]: 0.393 ± 0.048 µM

B2: MBP-ER_CD_(T/S8E), phosphomimetic version (domain or fragment, Arabidopsis, UniProt Q42371 602-976, looked up)
chain: CRPHNPPPFLDGSLDKPVTYSTPKLVILHMNMALHVYEDIMRMTENLSEKYIIGHGASSTVYKCVLKNCKPVAIKRLYSHNPQSMKQFETELEMLSSIKHRNLVSLQAYSLSHLGSLLFYDYLENGSLWDLLHGPTKKKTLDWDTRLKIAYGAAQGLAYLHHDCSPRIIHRDVKSSNILLDKDLEARLTDFGIAKSLCVSKSHTSTYVMGTIGYIDPEYARTSRLTEKSDVYSYGIVLLELLTRRKAVDDESNLHHLIMSKTGNNEVMEMADPDITSTCKDLGVVKKVFQLALLCTKRQPNDRPTMHQVTRVLGSFMLSEQPPAATDTSATLAGSCYVDEYANLKEPHEVNCEEMEAEDAQLFLRFGQVIEQNEE
notes: ERECTA (ER), Arabidopsis, cytoplasmic domain with the eight phosphosites of the C-terminal tail changed to glutamate; Tag end from the order of the printed name; source: recombinant, purified; not shown: MBP, N-terminal, kept
binding result [3]: binds

B3: GST-BKI1 (BRI1 KINASE INHIBITOR 1) (natural protein, UniProt Q9FMZ0 1-337, looked up)
chain: METNLQQVKNSSQTFSEKQNPKQEASPSPISSTCSSPSHDFSFTISLQPLSSSSKHISPTLRSPSKTTSSYQQTDPFAVDLSPADEIFFHGHLLPLHLLSHLPVSPRTSTGSYNDGFTLPVKDILPDQPTNNNNNTENAITNISTEAKDDNTEDKAEGEIRVKTKPIKSFSLFGLSKWRKGFESNEREQEQQQQKIKKPMSLDLSHAVKKYIRMLFQKRGNGTQFWNRRQTSSYSFSSSLMGPNGNSKTMINGSYNKRDLIRGRRGELFSAPASMRTSPTNSGHLRVSTAGLSSSSGSTSSSSSDSTMEELQAAIQAAIAHCKNSSAVDRDDKVKDS
notes: Tag end from the order of the printed name; source: recombinantly purified; not shown: GST, N-terminal, kept
Kd [4]: 18 µM | Kd [5]: 3.8 µM | Kd [6]: 3.7 ± 0.7 µM | binding result [7]: binds

B4: GST-PUB30 (U-box E3 ligase PUB30) (enzyme)
chain: MPMFQPLKRDGLIGFEGGGDGQVLDLDTAVKDGVLGGVNGGGVGVVDEKLDLKKMIKELDLQDIPSVFICPISLEPMQDPVTLCTGQTYERLNIHKWFNLGHLTCPTTMQELWDDTVTPNKTLHHLIYTWFSQKYVLMKKRSEDVQGRAIEILGTLKKAKGQARVHALSELKQIVIAHLMARKTVVEEGGVSVISSLLGPFTSHAVGSEVVAILVSLDLDSDSKSGLMQPAKVSLIVDMLNDGSNETKINCARLIRGLVEEKGFRAELVSSHSLLVGLMRLVKDKRHRNGVSPALRLLKPISVHKQVRSLMVSIGAVPQLVDILPSLDPECLELALFVLDALCTDVEGRVAVKDSANTIPYTVRVLMRVSENCTNYALSILWSVCKLAPEECSPLAVEVGLAAKLLLVIQSGCDAALKQRSAELLKLCSLHYSDTMFISKCKLTRTIQ
Kd [4]: 0.194 µM | Kd [5]: 9.5 µM
